According to patent US20110158985A1:

Target: F protein of RSV (Long strain) (RSV (Long strain)) (UniProt P12568)
Test: cell-based or functional assay

F protein of RSV (Long strain) (RSV (Long strain)), sequence (P12568 26-574): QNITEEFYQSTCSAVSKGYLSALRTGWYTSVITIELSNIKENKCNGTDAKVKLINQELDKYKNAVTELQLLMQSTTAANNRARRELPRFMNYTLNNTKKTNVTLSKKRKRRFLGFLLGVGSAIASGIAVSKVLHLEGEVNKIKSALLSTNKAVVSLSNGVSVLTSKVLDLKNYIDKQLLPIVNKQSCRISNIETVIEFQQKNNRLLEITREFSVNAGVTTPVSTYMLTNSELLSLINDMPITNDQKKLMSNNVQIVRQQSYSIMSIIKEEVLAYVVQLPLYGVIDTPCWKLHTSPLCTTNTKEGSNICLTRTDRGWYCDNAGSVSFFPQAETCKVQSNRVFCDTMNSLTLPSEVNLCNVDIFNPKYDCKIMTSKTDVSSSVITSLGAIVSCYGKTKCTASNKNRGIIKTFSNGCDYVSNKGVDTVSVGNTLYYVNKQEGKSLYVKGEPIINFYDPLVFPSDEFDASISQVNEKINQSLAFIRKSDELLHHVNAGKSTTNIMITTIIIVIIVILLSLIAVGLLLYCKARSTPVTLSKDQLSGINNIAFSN
palivizumab F(ab')2, sequence (VH): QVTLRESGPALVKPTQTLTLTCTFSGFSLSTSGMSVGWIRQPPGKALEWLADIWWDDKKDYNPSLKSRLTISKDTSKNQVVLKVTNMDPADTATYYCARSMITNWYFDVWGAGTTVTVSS
palivizumab F(ab')2, sequence (VL): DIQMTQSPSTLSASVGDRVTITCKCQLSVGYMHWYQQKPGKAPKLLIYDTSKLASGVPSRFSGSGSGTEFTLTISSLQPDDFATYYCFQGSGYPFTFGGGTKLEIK

palivizumab F(ab')2
Microneutralization IC50: 1.4 nM
